PMC4610412 (2016)
Where no end group is shown, it is not given here. [ ]: non-standard residue; d: D form. pT = C[C@@H](OP(=O)(O)O)[C@H](N)C(=O)O; pS = N[C@@H](COP(=O)(O)O)C(=O)O

What was measured:
pCdc25C = target: T1, pCdc25C (Homo sapiens); assay: ITC
T1 chain: EQPL[pT]PVTDL

cis-locked inhibitor = target: T2, cis-locked inhibitor (also: cis-locked alkene isostere, place not given here); assay: NMR titration
T2 chain: FF[pS]PR

trans-locked inhibitor = target: T3, trans-locked inhibitor (also: trans-locked alkene isostere, place not given here); assay: NMR titration
T3 chain: FF[pS]PR

Kd (pCdc25C): > 1000 µM
Kd (cis-locked inhibitor): 7 µM
Kd (trans-locked inhibitor): 66 µM
B1: Pin1 PPIase domain (isolated) PPIase (protein)
chain: PARVRCSHLLVKHSQSRRPSSWRQEKITRTKEEALELINGYIQKIKSGEEDFESLASQFSDCSSAKARGDLGAFSRGQMQKPFEDASFALRTGEMSGPVFTDSGIHIILRTE
